Laboratory results published in patent US20250221936A1, “ENGINEERED HEMICHANNELS, ENGINEERED VESICLES, AND USES THEREOF” (VIRGINIA TECH INTELLECTUAL PROPERTIES, INC., priority 2018, published 2025).
Entries after “also recorded” stand apart in the source; their conditions may differ.

What was measured:
[1] = molecular target: T1, Cx43 CT (amino acids 255 to 382) (Rattus norvegicus, UniProt P08050); test: Surface plasmon resonance, Cx43 CT analyte; format: binding; settings: biotin-peptide immobilized on streptavidin chip; analyte 0.5 to 15 μM
T1 construct: Cx43-CT: amino acids 255 to 382; GST (N, cleaved yes); made in house; host or cells: E. coli BL21
T1 sequence (P08050 255-382): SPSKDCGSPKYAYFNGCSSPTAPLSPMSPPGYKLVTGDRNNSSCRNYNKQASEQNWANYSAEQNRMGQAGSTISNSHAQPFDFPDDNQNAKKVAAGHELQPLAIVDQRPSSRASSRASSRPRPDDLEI
Protocol: Efficacy of the interaction of each alpha CT1 variant with Cx43 CT or Cx43 CT-KK/QQ was tested using surface plasmon resonance (SPR) as described previously 20. In brief, SPR experiments were performed using a Biacore T200 (GE Healthcare). Equal amounts (response units/RU) of biotin-alpha CT1 variants were immobilized on each flow cell of a streptavidin-coated sensor chip (Biacore Inc) using immobilization buffer (in mM: 10 HEPES, 1 EDTA, 100 NaCl, 0.005% Tween-20) at pH 7.4. Measurements with wild-type (wt) Cx43 CT and mutant Cx43 CT-KK/QQ analytes were done in running buffer (in mM: 10 HEPES, 100 NaCl, pH 7.4) at a flow rate of 30 μl/min. Binding of analytes were verified at different concentrations, in random order (injection volume 120 μl). Interacting proteins were then unbound by injection of […] regeneration buffer (50 mM NaOH and 1 M NaCl) at a flow rate of 10 μl/min. Background levels were obtained from a reference cell containing a biotin-control peptide in which the reversed sequence of the last 9 amino acids of Cx43 was fused to biotin-antennapedia. The RU values obtained with biotin-control peptide were subtracted from the RU values obtained with the different biotin-alphaCT1 variants (wild-type or mutant) to generate the different response curves.

[2] = molecular target: T2, PKC-ε phosphorylation of Cx43-CT substrate at Ser368 (Rattus norvegicus, UniProt P08050); test: PKC-ε Cx43 CT S368 phosphorylation assay; format: biochemical; settings: peptides at 20 μM
T2 construct: substrate (Cx43-CT: amino acids 255 to 382); GST (N); made in house; host or cells: E. coli BL21 (Cx43 CT); PKC-ε purchased (Life, 37717L)
T2 sequence (P08050 255-382): as above
Protocol: PKC assay conditions were used to evaluate the PKC-ε phosphorylation of Cx43-CT substrate at Ser368 as we have described previously, with modifications 11. 400 ng/ml […] (Life, 37717L, Carlsbad, CA) was pre-diluted in enzyme dilution buffer (10 mM HEPES pH7.4, 0.01% CHAPS and 5 mM DTT) and assayed in 20 mM HEPES pH7.4, 10 mM/L MgCl2, 0.1 mM EGTA, 1× lipid mix (200 μg/ml phosphatidylserine (Avanti Polar Lipids 840032C),^20 μg/ml Diacylglycerol (Avanti Polar Lipids), 1 mM HEPES pH7.4, 0.03% CHAPS), 500 µM ATP (Sigma, A6419) and 14 μg/ml Cx43-CT substrate. Kinase assay buffer was supplemented with peptides to produce final concentrations of the reaction constituents, as indicated in figure legends. The mixture was incubated at 37° C. for 12 minutes and quenched by addition of LDS sample loading buffer (Bio Rad, 1610791). “XT sample buffer” is what was shown on the product label, whereas the component is similar as regular LDS buffer, containing about 5-10% lithium dodecyl sulphate. The reaction was Western blotted for pS368 Cx43 using the Phospho-Connexin43 (Ser368) antibody from Cell Signaling. Proteins were eluted off by stripping buffer (Millipore 2504) and re-probed for total Cx43 using the Sigma anti-rabbit antibody. Percent phosphorylation (% P) was quantified using Equation 1 and normalized with control group (PKC+, no peptide added).

ZO-1 PDZ2 = molecular target: T3, ZO-1 PDZ2 (Homo sapiens, UniProt Q07157); test: EDC cross-linking to GST fusion ZO-1 PDZ domains; format: binding; settings: 5, 25 and 50 μM
T3 construct: the second of the three PDZ (PDZ2) domains of ZO-1; made in house; host or cells: E. coli BL21
T3 sequence (Q07157 186-264 limits assumed): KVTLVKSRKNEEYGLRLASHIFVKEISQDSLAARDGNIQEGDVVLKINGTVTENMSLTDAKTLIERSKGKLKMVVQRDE
Protocol: To characterize the interaction between the Cx43 CT substrate and peptides, the in vitro kinase assay was performed as above with modification and the constituents then subjected to a cross-linking reaction. The assay buffer used was 20 mM 3-(N-morpholino) propanesulfonic acid (MOPS), pH 7.2. All other reagents present in the kinase reaction were maintained as described above. The reaction was allowed to proceed at 37° C. for 15 minutes. Afterwards, the carbodiimide crosslinker 1-Ethyl-3-(3-dimethylaminopropyl) carbodiimide HCl (EDC) (Thermo, 22980) was added to each solution for a final concentration of 20 mM. The solution was allowed to cross-link for one hour at room temperature. The reaction was stopped by the addition of 4×LDS loading buffer, boiled for 5 minutes and subsequently separated by PAGE. The resulting gel was stained in Coomassie brilliant blue (Sigma, B0770) for two hours and destained in a solution of 4% methanol 7% acetic acid overnight. Gel bands were subsequently excised for mass spectrometric analysis. For the direct interaction between protein and peptides, PBS, pH 7.5 was used as the coupling buffer. The protein (50 μg/ml) and peptide (25 μM) were allowed to react at room temperature for one hour before EDAC was added to the reaction mixture. The reaction was Western blotted for Cx43, GST or NeutroAvidin.

Sequence | SPR binding to Cx43 CT [1] | Cx43 S368 phosphorylation [2] | interaction with ZO-1 PDZ2 (ZO-1 PDZ2) | ability to induce S368 phosphorylation ([2]; greater than PKC ε+plus control, M1 AALAI or M4)
RQPKIWFPNRRKPWKK RPRPAALAI (RQPKIWFPNRRKPWKKRPRPAALAI) [M1 AALAI] | loss of Cx43 CT binding competence | neither M1 AALAI (SEQ ID NO: 134), M2 AALEI (SEQ ID NO: 135) nor M3 DDLAI (SEQ ID NO: 136) increased Cx43 S368 phosphorylation | – | –
RQPKIWFPNRRKPWKKRPRPDDLAI [M3 DDLAI] | abrogated peptide interaction with Cx43 CT | neither M1 AALAI (SEQ ID NO: 134), M2 AALEI (SEQ ID NO: 135) nor M3 DDLAI (SEQ ID NO: 136) increased Cx43 S368 phosphorylation | – | –
RQPKIWFPNRRKPWKKRPRPDDLE [alpha CT1-I] | – | significant increase in PKC ε-mediated phosphorylation of Cx43 CT | incompetent to interact; also recorded: abrogates interaction with ZO-1 PDZ2 | –
RQPKIWFPNRRKPWKKRPRPDDLEI [alpha CT1] | – | – | selectivity of alpha CT1 for ZO-1 PDZ2 | about 3 fold
